Source: the supplement of paper PMC10724198
± gives the standard deviation of the averaged measurements.

What was measured:
Saccharomyces cerevisiae [1] = test: protein stability index of tFT-peptide fusion (C-terminal peptide) (PSI (0-1 scale)); higher = more stable (slower turnover); conditions: genetic background: wild type; temperature: 30 C
Saccharomyces cerevisiae [2] = test: as above
Method: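 MPS profiling in S. cerevisiae of the tFT-X12 degron library: putative degron peptides plus stable controls, 12 aa, fused to the C-terminus of a sfGFP-mCherry timer. Cells are FACS-sorted into 8 mCherry/sfGFP bins and deep-sequenced. PSI runs from 0 (unstable) to 1 (stable). Backgrounds are wild type, das1Δ and doa10Δ at 30 °C, and wild type, das1Δ, cdc34-1 and cdc53-1 at 37 °C; 2-3 technical replicates each.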

[3] = genetic background: cdc34-1, temperature: 37 C
[4] = genetic background: cdc53-1, temperature: 37 C
[5] = genetic background: das1 deletion, temperature: 30 C
[6] = genetic background: das1 deletion, temperature: 37 C
[7] = genetic background: doa10 deletion, temperature: 30 C
[8] = genetic background: wild type, temperature: 30 C
[9] = genetic background: wild type, temperature: 37 C
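Further: PSI is a weighted mean of sequencing reads over stability bins, variants kept only with over 10 reads, mCherry proximal and sfGFP distal, peptide attached via GGGS linker.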

Row | Sequence | protein stability index (Saccharomyces cerevisiae [1]) | protein stability index (Saccharomyces cerevisiae [2]; [3]) | protein stability index (Saccharomyces cerevisiae [2]; [4]) | protein stability index (Saccharomyces cerevisiae [2]; [5]) | protein stability index (Saccharomyces cerevisiae [2]; [6]) | protein stability index (Saccharomyces cerevisiae [2]; [7]) | protein stability index (Saccharomyces cerevisiae [2]; [8]) | protein stability index (Saccharomyces cerevisiae [2]; [9])
1 | NTDRRNICKISS | 0.163 ± 0.044 | 0.493 ± 0.031 | 0.671 ± 0.059 | 0.631 ± 0.02 | 0.733 ± 0.0086 | 0.105 ± 0.0079 | 0.1084 ± 0.00051 | 0.169 ± 0.0083
2 | SLFVLLVSALLH | 0.345 ± 0.02 | 0.173 ± 0.029 | 0.32 ± 0.025 | 0.212 ± 0.025 | 0.38251 ± 0.0002 | 0.18 ± 0.0094 | 0.194 ± 0.033 | 0.328 ± 0.011
3 | TPPFFDIFVVLL | 0.46 ± 0.037 | 0.576 ± 0.052 | 0.652 ± 0.023 | 0.463 ± 0.027 | 0.6652 ± 0.0032 | 0.456 ± 0.021 | 0.48 ± 0.031 | 0.616 ± 0.043
4 | PRGKGSSGELCV | 0.578 ± 0.15 | 0.683 ± 0.038 | 0.7344 ± 0.0044 | 0.662 ± 0.025 | 0.707 ± 0.03 | 0.6363 ± 0.0063 | 0.647 ± 0.033 | 0.712 ± 0.012
5 | SRMIPSAFLLVI | 0.442 ± 0.01 | 0.589 ± 0.016 | 0.64 ± 0.012 | 0.507 ± 0.016 | 0.627 ± 0.012 | 0.348 ± 0.012 | 0.371 ± 0.02 | 0.513 ± 0.011
6 | GWLFTFTCAFRV | 0.479 ± 0.058 | 0.429 ± 0.01 | 0.441 ± 0.014 | 0.443 ± 0.027 | 0.482 ± 0.012 | 0.4984 ± 0.0014 | 0.428 ± 0.016 | 0.4672 ± 0.0025
7 | PRPISRRTLILS | 0.472 ± 0.062 | 0.642 ± 0.047 | 0.7053 ± 0.0034 | 0.545 ± 0.026 | 0.721 ± 0.0088 | 0.308 ± 0.0098 | 0.354 ± 0.023 | 0.554 ± 0.02
8 | SLLSELILVGVS | 0.406 ± 0.021 | 0.394 ± 0.0081 | 0.409 ± 0.0044 | 0.284 ± 0.035 | 0.465 ± 0.0089 | 0.229 ± 0.011 | 0.304 ± 0.018 | 0.4308 ± 0.0017
9 | IKPSVHILIRTL | 0.21 ± 0.0069 | 0.544 ± 0.019 | 0.57 ± 0.017 | 0.446 ± 0.046 | 0.571 ± 0.02 | 0.118 ± 0.022 | 0.14 ± 0.0072 | 0.222 ± 0.0071
10 | WGRTIGATFTGR | 0.595 ± 0.15 | 0.698 ± 0.029 | 0.779 ± 0.0021 | 0.644 ± 0.024 | 0.748 ± 0.0085 | 0.669 ± 0.01 | 0.685 ± 0.013 | 0.746 ± 0.019
11 | DRHCLVSLSPDG | 0.5 ± 0.1 | 0.64 ± 0.03 | 0.665 ± 0.03 | 0.618 ± 0.015 | 0.686 ± 0.029 | 0.623 ± 0.016 | 0.6079 ± 0.0033 | 0.678 ± 0.033
12 | DRSPLPAIFVAQ | 0.681 ± 0.047 | 0.7 ± 0.028 | 0.746 ± 0.021 | 0.674 ± 0.013 | 0.7428 ± 0.0073 | 0.665 ± 0.013 | 0.643 ± 0.012 | 0.733 ± 0.016
13 | VSFHLGVIFALS | 0.39 ± 0.0086 | 0.547 ± 0.018 | 0.5268 ± 0.0037 | 0.401 ± 0.026 | 0.536 ± 0.0072 | 0.268 ± 0.0063 | 0.343 ± 0.021 | 0.46 ± 0.013
14 | VVVLRRVIEVMQ | 0.342 ± 0.0062 | 0.327 ± 0.015 | 0.37 ± 0.025 | 0.256 ± 0.03 | 0.448 ± 0.013 | 0.199 ± 0.0065 | 0.253 ± 0.027 | 0.413 ± 0.012
15 | YFLAMFIISGGV | 0.478 ± 0.073 | 0.371 ± 0.032 | 0.435 ± 0.032 | 0.28 ± 0.034 | 0.4798 ± 0.0021 | 0.248 ± 0.011 | 0.263 ± 0.042 | 0.443 ± 0.031
16 | RYSVIRWMLIVC | 0.051 ± 0.013 | 0.0413 ± 0.012 | 0.0475 ± 0.01 | 0.0885 ± 0.021 | 0.13 ± 0.0059 | 0.0358 ± 0.01 | 0.0321 ± 0.0053 | 0.0441 ± 0.0061
17 | VVTVCIIRLAWG | 0.367 ± 0.036 | 0.219 ± 0.0046 | 0.315 ± 0.056 | 0.215 ± 0.025 | 0.386 ± 0.014 | 0.189 ± 0.013 | 0.225 ± 0.018 | 0.342 ± 0.019
18 | GEWCLPLRLVVY | 0.22 ± 0.043 | 0.061 ± 0.013 | 0.0685 ± 0.024 | 0.185 ± 0.021 | 0.201 ± 0.011 | 0.137 ± 0.01 | 0.172 ± 0.02 | 0.174 ± 0.012
19 | LQLRKQILLLMT | 0.299 ± 0.025 | 0.348 ± 0.022 | 0.36 ± 0.011 | 0.299 ± 0.022 | 0.432 ± 0.005 | 0.169 ± 0.019 | 0.195 ± 0.013 | 0.233 ± 0.034
20 | GGAVGVRGGCRG | 0.452 ± 0.033 | 0.565 ± 0.12 | 0.7112 ± 0.0027 | 0.496 ± 0.017 | 0.635 ± 0.036 | 0.522 ± 0.05 | 0.512 ± 0.027 | 0.607 ± 0.026
